According to the supplement of paper PMC10724198:
± gives the standard deviation of the averaged measurements.
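Further: PSI is a weighted mean of sequencing reads over stability bins, variants kept only with over 10 reads, mCherry proximal and sfGFP distal, peptide attached via GGGS linker.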

Each sequence was assayed on Saccharomyces cerevisiae (assay: protein stability index of tFT-peptide fusion (C-terminal peptide) (PSI (0-1 scale)); higher = more stable (slower turnover)). Conditions: genetic background: wild type; temperature: 30 C.
Method: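 Multiplexed protein stability (MPS) profiling in S. cerevisiae. Random 12-aa peptides (tFT-X12 library) are fused to the C-terminus of a sfGFP-mCherry tandem fluorescent timer, after mCherry and a GGGS linker. Cells are FACS-sorted into 8 mCherry/sfGFP bins and deep-sequenced. The protein stability index (PSI) is the read-weighted bin average, scaled from 0 (unstable) to 1 (stable). Only peptides with >10 reads are reported; cells were grown at 30 °C in SC-His with glucose.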
AACNGGPMNQTR was tested, and the protein stability index was 0.7 ± 0.086. For AAPKSGARASLW, the protein stability index was 0.728 ± 0.084. Work on AAQDTRAHYRTR yielded a protein stability index of 0.704 ± 0.044. AAREVSPGNVCH gave a protein stability index of 0.731 ± 0.065. AARSEVASAAGR was tested, and the protein stability index was 0.643 ± 0.016. AASPHHPSQTAL was tested, and the protein stability index was 0.6831 ± 0.0063. AASSDGWHTGGA showed a protein stability index of 0.694 ± 0.0032. For AAVLFVHATSHE, the protein stability index was 0.685 ± 0.061. For AAWLSQLNKVNV, the protein stability index was 0.6679 ± 0.0014. ACCPPRLAPPPL showed a protein stability index of 0.675 ± 0.016. ACGALAKMILFW was tested, and the protein stability index was 0.663 ± 0.059. With ACPAPPPPQLPR the protein stability index was 0.593 ± 0.031. In the case of ACRLWWRRGGEG, the protein stability index is reported as 0.61 ± 0.045. ACRPRPPLSRSP showed a protein stability index of 0.739 ± 0.032. For ACSTALPFSFAS, the protein stability index was 0.689 ± 0.0074. ACVSWLPVPRQS showed a protein stability index of 0.6964 ± 0.0062. With ADGLVGLLLSVV the protein stability index was 0.62 ± 0.024. ADMLETFSVHLG was tested, and the protein stability index was 0.666 ± 0.011. With ADVWSCAFCFDC the protein stability index was 0.595 ± 0.033. For AEGGGWSFELEG, the protein stability index was 0.746 ± 0.02. In the case of AFCVSVLVGLGG, the protein stability index is reported as 0.487 ± 0.052. AFFVAFLPLLSR gave a protein stability index of 0.552 ± 0.031. AFLPLYFLEGVL was tested, and the protein stability index was 0.702 ± 0.024. For AFLTSYHPPPLP, the protein stability index was 0.69 ± 0.059. AFNRYASRIQEV was tested, and the protein stability index was 0.695 ± 0.02. With AFPLFTDLTRVP the protein stability index was 0.7692 ± 0.0066. AFPPVIPALFSV gave a protein stability index of 0.697 ± 0.027. AFRGRGAFKYCL was tested, and the protein stability index was 0.683 ± 0.1. For AFSLRGRSVMFY, the protein stability index was 0.688 ± 0.025. Sequence AFTLQSRLSSPS has a protein stability index of 0.655 ± 0.012. AFVEGMAYLLII gave a protein stability index of 0.524 ± 0.017. AGAGLGVVLGWW gave a protein stability index of 0.684 ± 0.017. For AGCVLDGRGVVA, the protein stability index was 0.615 ± 0.074. AGGGGGRGSAGA gave a protein stability index of 0.711 ± 0.011. In the case of AGGGGGVTASGA, the protein stability index is reported as 0.71 ± 0.063. For AGGGGRLTRSRA, the protein stability index was 0.691 ± 0.087. Sequence AGGGHCVGMGVG has a protein stability index of 0.642 ± 0.037. AGGPRVRGAAGR was tested, and the protein stability index was 0.698 ± 0.055. For AGKYCCFMVFVV, the protein stability index was 0.649 ± 0.033. In the case of AGLESFFHYSYF, the protein stability index is reported as 0.7487 ± 0.0002. In the case of AGLIRDAVILIG, the protein stability index is reported as 0.631 ± 0.021. AGLTGSREGWRG was tested, and the protein stability index was 0.638 ± 0.041. In the case of AGPGSSSTNHES, the protein stability index is reported as 0.585 ± 0.015. For AGPPRGVCARWC, the protein stability index was 0.635 ± 0.011. With AGRGRGPRSAGS the protein stability index was 0.657 ± 0.014. In the case of AGRRVPVMMYGS, the protein stability index is reported as 0.691 ± 0.022. Sequence AGRVGGFFFVVA has a protein stability index of 0.608 ± 0.017. For AGSCRCRTCCLV, the protein stability index was 0.61354 ± 0.00038. With AGSLCSVVFFSG the protein stability index was 0.688 ± 0.23. Work on AGSQEDGRSIKG yielded a protein stability index of 0.669 ± 0.024. Work on AGSRGIVREIVL yielded a protein stability index of 0.68 ± 0.052. Sequence AGVASTETREGG has a protein stability index of 0.685 ± 0.0073. Sequence AGVGLAETAGDD has a protein stability index of 0.677 ± 0.016. For AGVGMGAVAGGS, the protein stability index was 0.705 ± 0.02. AGWGRRRLDGGR was tested, and the protein stability index was 0.684 ± 0.02. AHFSRRSSSSVS was tested, and the protein stability index was 0.7 ± 0.02. AHLLLRPPLVAH showed a protein stability index of 0.486 ± 0.029. Sequence AHPLSPLSSPLR has a protein stability index of 0.682 ± 0.081. Sequence AHVDWRLPEPNR has a protein stability index of 0.7172 ± 0.0069. In the case of AIGAVEGGRMRE, the protein stability index is reported as 0.5748 ± 0.0048. AIQNSNLNTKVR was tested, and the protein stability index was 0.675 ± 0.033. With AIVWGVGCGSVG the protein stability index was 0.738 ± 0.12. For AKLNQLMSKSQI, the protein stability index was 0.678 ± 0.02. AKRRELKCRVNL was tested, and the protein stability index was 0.674 ± 0.0087. AKSRQRKNGRTG gave a protein stability index of 0.708 ± 0.026. Sequence AKYPAQASTEPL has a protein stability index of 0.702 ± 0.028. ALALCLVFFFSI showed a protein stability index of 0.574 ± 0.065. With ALAYSLQRSPRV the protein stability index was 0.616 ± 0.045. ALESHFMVPSFP was tested, and the protein stability index was 0.693 ± 0.043. Work on ALGHAKDSVYGM yielded a protein stability index of 0.679 ± 0.041. In the case of ALGRWAVSCNRG, the protein stability index is reported as 0.71 ± 0.11. ALLFCVCCGFFF was tested, and the protein stability index was 0.541 ± 0.013. ALPGHFCVSFLP gave a protein stability index of 0.752 ± 0.033. ALPPPRPPPPSP was tested, and the protein stability index was 0.692 ± 0.034. ALRAGGRPYSVS gave a protein stability index of 0.716 ± 0.014. ALRGESWKSKQG gave a protein stability index of 0.664 ± 0.13. Work on ALSRLLPPRPPV yielded a protein stability index of 0.608 ± 0.027. In the case of ALTWVGEGLRGS, the protein stability index is reported as 0.699 ± 0.027. For ALYQNWITITRN, the protein stability index was 0.657 ± 0.022. In the case of AMGIPLLTTHFI, the protein stability index is reported as 0.674 ± 0.064. AMPLPPPTPPRS gave a protein stability index of 0.627 ± 0.027. With ANHRPCIPPPPR the protein stability index was 0.657 ± 0.073. Work on APACVAGGGQRL yielded a protein stability index of 0.681 ± 0.081. For APAFLSLVSFAS, the protein stability index was 0.673 ± 0.017. For APAPAPARTPTR, the protein stability index was 0.683 ± 0.016. APAPSLPTSGEL was tested, and the protein stability index was 0.701 ± 0.092. APDRGWAEGQCS showed a protein stability index of 0.727 ± 0.018. Sequence APGGACINIQLM has a protein stability index of 0.663 ± 0.044. With APHPTPYVRRHC the protein stability index was 0.74 ± 0.041. For APLRAPYPPPPY, the protein stability index was 0.7153 ± 0.0014. APLRSSCVFLFP showed a protein stability index of 0.744 ± 0.17. Work on APLSRPLRLPHP yielded a protein stability index of 0.692 ± 0.022. Sequence APPCILCLFPAC has a protein stability index of 0.716 ± 0.024. APPLPPSPPSAR gave a protein stability index of 0.729 ± 0.11. Work on APPLPSAPPPPR yielded a protein stability index of 0.668 ± 0.031. In the case of APPPGSTFVSCE, the protein stability index is reported as 0.674 ± 0.045. With APPPLPLPPPAP the protein stability index was 0.705 ± 0.033. Sequence APPPLPSPRPAA has a protein stability index of 0.699 ± 0.04. APPPPPPPPSFP gave a protein stability index of 0.687 ± 0.055. In the case of APPPRPLKLFPP, the protein stability index is reported as 0.611 ± 0.028. In the case of APPPRSPPPTPH, the protein stability index is reported as 0.696 ± 0.012. APPRPHTPLPRP showed a protein stability index of 0.75 ± 0.07. Sequence APPRSPRSLPPL has a protein stability index of 0.658 ± 0.013. With APPVILPPSGPP the protein stability index was 0.654 ± 0.028. In the case of APPVPLWVNPRT, the protein stability index is reported as 0.7 ± 0.025. Work on APQTELTGVLFG yielded a protein stability index of 0.685 ± 0.0071. In the case of APSCPKSLTFLD, the protein stability index is reported as 0.734 ± 0.035. In the case of APSLLAPPPLRP, the protein stability index is reported as 0.674 ± 0.017. Work on APSLPPRLPWLY yielded a protein stability index of 0.737 ± 0.015. With APSPPSHPAAIP the protein stability index was 0.741 ± 0.042. With APSPPVPTGPRP the protein stability index was 0.664 ± 0.059. In the case of APSTPTPPPPPP, the protein stability index is reported as 0.686 ± 0.042. APVQLDNKVVLM showed a protein stability index of 0.699 ± 0.04. In the case of APWSVSAGCFLF, the protein stability index is reported as 0.687 ± 0.036. AQTVNNALAKPI was tested, and the protein stability index was 0.6551 ± 0.0049. ARAEDLLVFLPL showed a protein stability index of 0.691 ± 0.039. Work on AREGARVVPVGR yielded a protein stability index of 0.717 ± 0.014. Sequence AREGGGRAGRRE has a protein stability index of 0.729 ± 0.021. ARGRAVRAAGAS showed a protein stability index of 0.688 ± 0.088. ARIECLIFPGCK was tested, and the protein stability index was 0.626 ± 0.022. ARKCPLLYGPMA gave a protein stability index of 0.662 ± 0.04. For ARKDVTRKSSND, the protein stability index was 0.665 ± 0.064. Work on ARLGKASYSVFS yielded a protein stability index of 0.729 ± 0.027. ARNVDNIGYENS showed a protein stability index of 0.698 ± 0.013. In the case of ARRAPTFFSLWR, the protein stability index is reported as 0.658 ± 0.049. Work on ARRAVPGRGCEV yielded a protein stability index of 0.683 ± 0.066. ARRGIVQSRCNW was tested, and the protein stability index was 0.684 ± 0.064. In the case of ARRRINKKIKKV, the protein stability index is reported as 0.554 ± 0.018. ARVAGECRCGRT showed a protein stability index of 0.6554 ± 0.00095. With ASAGTVYLTLLP the protein stability index was 0.697 ± 0.072. ASFMSPPSAPLA was tested, and the protein stability index was 0.6953 ± 0.0047. ASGGGPLGNSSR showed a protein stability index of 0.684 ± 0.043. In the case of ASGPLPPHPIAD, the protein stability index is reported as 0.677 ± 0.011. ASKKSVVFKQKT gave a protein stability index of 0.6586 ± 0.0013. ASLGPCLPLSLN was tested, and the protein stability index was 0.695 ± 0.03. In the case of ASPAASSPYGTR, the protein stability index is reported as 0.733 ± 0.051. With ASPAIDSETSEY the protein stability index was 0.686 ± 0.16. Sequence ASPFCRPNRHLL has a protein stability index of 0.648 ± 0.031. With ASPLYPRPPVRG the protein stability index was 0.651 ± 0.014. ASPSSAAQPLSP showed a protein stability index of 0.641 ± 0.099. In the case of ASSPLFLPAIQP, the protein stability index is reported as 0.63 ± 0.06. Sequence ASTPLPTSPPPP has a protein stability index of 0.66 ± 0.036. Work on ASVIWGGFSDSR yielded a protein stability index of 0.719 ± 0.015. ASVTSKSNCSGI gave a protein stability index of 0.663 ± 0.037. In the case of ASYFPLRLLGFL, the protein stability index is reported as 0.65 ± 0.051. ATDWPELFLPFG showed a protein stability index of 0.666 ± 0.007.
